# Values quoted from earlier work, collected in patent US11530434B2, “Cell mass evaluation method and device for analyzing state of cell mass” (HAMAMATSU PHOTONICS K.K., priority 2017, dated 2022).
# B1: TGF-β2: reagent “TGF-β2” whose addition acts on the cell morphology (reported in Non-Patent Document 3) (protein, UniProt P61812 303-414, looked up)
# Transforming growth factor …: ALDAAYCFRNVQDNCCLRPLYIDFKRDLGWKWIHEPKGYNANFCAGACPYLWSSDTQHSRVLSLYNTINPEASASPCCVSQDLEPLTILYYIGKTPKIEQLSNMIVKSCKCS
# System: cell morphology
# Conditions: compared to the control state
molecule,measurement,value
B1,change of cell shape on addition of the reagent,makes the cell shape elongated
